We go through five molecules from patent US20250262210A1 (TRUSTEES OF COLUMBIA UNIVERSITY IN THE CITY OF NEW YORK, published 2025).

Residue numbers refer to the chain shown, from its start.

One assay deals with T1, LZTR1 R810W-FLAG (human, UniProt Q8N653 1-840).
T1 construct: Stably expressed in U87 cells by lentivirus; also called LZTR1-FLAG-R810W; LZTR1 RW; not shown: FLAG tag
T1 sequence (looked up): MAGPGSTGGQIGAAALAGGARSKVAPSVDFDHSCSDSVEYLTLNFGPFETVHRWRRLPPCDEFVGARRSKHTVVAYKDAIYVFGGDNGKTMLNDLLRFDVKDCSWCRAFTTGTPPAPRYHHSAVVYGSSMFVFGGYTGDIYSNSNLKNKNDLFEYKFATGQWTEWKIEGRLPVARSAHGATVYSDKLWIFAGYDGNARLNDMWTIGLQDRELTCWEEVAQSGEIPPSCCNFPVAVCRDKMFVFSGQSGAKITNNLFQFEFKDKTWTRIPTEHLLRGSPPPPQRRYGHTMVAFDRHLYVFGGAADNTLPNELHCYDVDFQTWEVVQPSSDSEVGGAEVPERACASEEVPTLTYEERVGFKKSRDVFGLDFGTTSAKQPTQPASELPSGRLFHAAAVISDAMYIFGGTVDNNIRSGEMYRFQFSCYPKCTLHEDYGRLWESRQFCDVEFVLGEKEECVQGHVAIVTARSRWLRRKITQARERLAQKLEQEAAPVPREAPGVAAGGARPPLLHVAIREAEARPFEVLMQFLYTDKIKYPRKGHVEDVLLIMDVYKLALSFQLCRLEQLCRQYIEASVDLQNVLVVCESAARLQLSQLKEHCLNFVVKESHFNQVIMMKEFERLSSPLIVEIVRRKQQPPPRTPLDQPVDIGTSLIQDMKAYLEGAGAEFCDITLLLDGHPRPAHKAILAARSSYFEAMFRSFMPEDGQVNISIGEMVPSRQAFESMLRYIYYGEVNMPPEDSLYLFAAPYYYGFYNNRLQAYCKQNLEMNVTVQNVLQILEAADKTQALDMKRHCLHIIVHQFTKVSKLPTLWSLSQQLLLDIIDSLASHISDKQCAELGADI
Description: IP/MS, LZTR1 R810W-FLAG, U87. How it is done:
(§1) Lysates were immunoprecipitated with FLAG affinity matrix and eluted with FLAG peptide. […] Protein gel slices were excised and in-gel digestion performed as previously described (83), with minor modifications. Gel slices were washed with 1:1 A cetonitrile and 100 mM ammonium bicarbonate for 30 min then dehydrated with 100% acetonitrile for 10 min until shrunk. The excess acetonitrile was then removed and the slices dried in speed-vacuum at room temperature for 10 min. Gel slices were reduced with 5 mM DTT for 30 min at 56° C. in an air thermostat, cooled down to room temperature, and alkylated with 11 mM IAA for 30 min with no light. Gel slices were then washed with 100 mM of ammonium bicarbonate and 100% acetonitrile for 10 min each. Excess acetonitrile was removed and dried in a speed-vacuum for 10 min at room temperature and the gel slices were re-hydrated in a solution of 25 ng/μl trypsin in 50 mM ammonium bicarbonate for 30 min on ice and digested overnight at 37° C. in an air thermostat. Digested peptides were collected and further extracted from gel slices in extraction buffer (1:2 ratio by volume of 5% formic acid:acetonitrile) at high speed, shaking in an air thermostat. The supernatants from both extractions were combined and dried in a speed-vacuum. Peptides were dissolved in 3% acetonitrile/0.1% formic acid. Desalted peptides were injected in an EASY-Spray™ PepMap™ RSLC C18 50 cm×[…] column (Thermo Scientific) connected to an Orbitrap Fusion™ Tribrid™ (Thermo Scientific) as described in “Global ubiquitylation enrichment” section. The following modifications were used for protein identification and quantification: oxidation of methionine (M), acetylation of the protein N-terminus, and deamination for asparagine or glutamine (NQ). Results obtained from MaxQuant were assembled in Scaffold for data visualization.

The target of another assay is T2, LZTR1-FLAG (human, UniProt Q8N653 1-840).
T2 construct: Expressed in HEK 293T, HeLa or U87 cells; used as cell lysate; also called LZTR1 wild type-FLAG; LZTR1 WT; not shown: FLAG tag at the C-terminus
T2 sequence (looked up): T1 sequence (looked up) with W810R
Description: IP/MS, LZTR1 wild type-FLAG, U87. On the procedure:
as §1

B1: APPL1 (other, human, UniProt Q9UKG1 1-709, looked up)
chain: MPGIDKLPIEETLEDSPQTRSLLGVFEEDATAISNYMNQLYQAMHRIYDAQNELSAATHLTSKLLKEYEKQRFPLGGDDEVMSSTLQQFSKVIDELSSCHAVLSTQLADAMMFPITQFKERDLKEILTLKEVFQIASNDHDAAINRYSRLSKKRENDKVKYEVTEDVYTSRKKQHQTMMHYFCALNTLQYKKKIALLEPLLGYMQAQISFFKMGSENLNEQLEEFLANIGTSVQNVRREMDSDIETMQQTIEDLEVASDPLYVPDPDPTKFPVNRNLTRKAGYLNARNKTGLVSSTWDRQFYFTQGGNLMSQARGDVAGGLAMDIDNCSVMAVDCEDRRYCFQITSFDGKKSSILQAESKKDHEEWICTINNISKQIYLSENPEETAARVNQSALEAVTPSPSFQQRHESLRPAAGQSRPPTARTSSSGSLGSESTNLAALSLDSLVAPDTPIQFDIISPVCEDQPGQAKAFGQGGRRTNPFGESGGSTKSETEDSILHQLFIVRFLGSMEVKSDDHPDVVYETMRQILAARAIHNIFRMTESHLLVTCDCLKLIDPQTQVTRLTFPLPCVVLYATHQENKRLFGFVLRTSSGRSESNLSSVCYIFESNNEGEKICDSVGLAKQIALHAELDRRASEKQKEIERVKEKQQKELNKQKQIEKDLEEQSRLIAASSRPNQASSEGQFVVLSSSQSEESDLGEGGKKRESEA
Take B1: the binding result in the assay with LZTR1 R810W-FLAG and with LZTR1-FLAG was “binds” each time.

B2: ATG13 (other, human, UniProt O75143 1-517, looked up)
chain: METDLNSQDRKDLDKFIKFFALKTVQVIVQARLGEKICTRSSSSPTGSDWFNLAIKDIPEVTHEAKKALAGQLPAVGRSMCVEISLKTSEGDSMELEIWCLEMNEKCDKEIKVSYTVYNRLSLLLKSLLAITRVTPAYRLSRKQGHEYVILYRIYFGEVQLSGLGEGFQTVRVGTVGTPVGTITLSCAYRINLAFMSTRQFERTPPIMGIIIDHFVDRPYPSSSPMHPCNYRTAGEDTGVIYPSVEDSQEVCTTSFSTSPPSQLSSSRLSYQPAALGVGSADLAYPVVFAAGLNATHPHQLMVPGKEGGVPLAPNQPVHGTQADQERLATCTPSDRTHCAATPSSSEDTETVSNSSEGRASPHDVLETIFVRKVGAFVNKPINQVTLTSLDIPFAMFAPKNLELEDTDPMVNPPDSPETESPLQGSLHSDGSSGGSSGNTHDDFVMIDFKPAFSKDDILPMDLGTFYREFQNPPQLSSLSIDIGAQSMAEDLDSLPEKLAVHEKNVREFDAFVETLQ
Take B2: the binding result in the assay with LZTR1 R810W-FLAG and with LZTR1-FLAG was “binds” each time.

B3: ATF6 (other, human, UniProt P18850 1-670, looked up)
chain: MGEPAGVAGTMESPFSPGLFHRLDEDWDSALFAELGYFTDTDELQLEAANETYENNFDNLDFDLDLMPWESDIWDINNQICTVKDIKAEPQPLSPASSSYSVSSPRSVDSYSSTQHVPEELDLSSSSQMSPLSLYGENSNSLSSAEPLKEDKPVTGPRNKTENGLTPKKKIQVNSKPSIQPKPLLLPAAPKTQTNSSVPAKTIIIQTVPTLMPLAKQQPIISLQPAPTKGQTVLLSQPTVVQLQAPGVLPSAQPVLAVAGGVTQLPNHVVNVVPAPSANSPVNGKLSVTKPVLQSTMRNVGSDIAVLRRQQRMIKNRESACQSRKKKKEYMLGLEARLKAALSENEQLKKENGTLKRQLDEVVSENQRLKVPSPKRRVVCVMIVLAFIILNYGPMSMLEQDSRRMNPSVSPANQRRHLLGFSAKEAQDTSDGIIQKNSYRYDHSVSNDKALMVLTEEPLLYIPPPPCQPLINTTESLRLNHELRGWVHRHEVERTKSRRMTNNQQKTRILQGALEQGSNSQLMAVQYTETTSSISRNSGSELQVYYASPRSYQDFFEAIRRRGDTFYVVSFRRDHLLLPATTHNKTTRPKMSIVLPAININENVINGQDYEVMMQIDCQVMDTRILHIKSSSVPPYLRDQQRNQTNTFFGSPPAATEATHVVSTIPESLQ
As to B3, the binding result with LZTR1 R810W-FLAG and with LZTR1-FLAG was “binds” each time.

B4: ARMCX2 (other, human, UniProt Q7L311 1-632, looked up)
chain: MSRVRDAGCVAAGIVIGAGAWYCVYKYTRGRDQTKKRMAKPKNRAVAGTGARARAGLRAGFTIDLGSGFSPPTPVRAEAEDRAQDEASALDTVGAEAVAPAASSAEAQSGAGSQAQEADGAGVGPKAESVVGAAMASAIAPPPGVTEALGAAEAPAMAGAPKVAEAPREAETSRAAVPPGTVVPTEAAAPTEVTEGPGVAAPTKVAEAPGVASPTEAAEAPVPATPTGAAAPTGAAESPGTSGSPRTAVVPGTSAAKKATPGAHTGAIPKATSATGAVPKGGGKGVTRSRNGGKGKGKKSKVEVDELGMGFRPGDGAAAAAAASANGGQAFLAEVPDSEEGESGWTDTESDSDSEPETQRRGRGRRPVAMQKRPFPYEIDEILGVRDLRKVLALLQKSDDPFIQQVALLTLSNNANYSCNQETIRKLGGLPIIANMINKTDPHIKEKALMAMNNLSENYENQGRLQVYMNKVMDDIMASNLNSAVQVVGLKFLTNMTITNDYQHLLVNSIANFFRLLSQGGGKIKVEILKILSNFAENPDMLKKLLSTQVPASFSSLYNSYVESEILINALTLFEIIYDNLRAEVFNYREFNKGSLFYLCTTSGVCVKKIRALANHHDLLVKVKVIKLVNKF
For B4, the binding result with LZTR1 R810W-FLAG and in the assay with LZTR1-FLAG was “binds” throughout.

B5: ATF6B (other, human, UniProt Q99941 2-703, looked up)
chain: AELMLLSEIADPTRFFTDNLLSPEDWGLQNSTLYSGLDEVAEEQTQLFRCPEQDVPFDGSSLDVGMDVSPSEPPWELLPIFPDLQVKSEPSSPCSSSSLSSESSRLSTEPSSEALGVGEVLHVKTESLAPPLCLLGDDPTSSFETVQINVIPTSDDSSDVQTKIEPVSPCSSVNSEASLLSADSSSQAFIGEEVLEVKTESLSPSGCLLWDVPAPSLGAVQISMGPSLDGSSGKALPTRKPPLQPKPVVLTTVPMPSRAVPPSTTVLLQSLVQPPPVSPVVLIQGAIRVQPEGPAPSLPRPERKSIVPAPMPGNSCPPEVDAKLLKRQQRMIKNRESACQSRRKKKEYLQGLEARLQAVLADNQQLRRENAALRRRLEALLAENSELKLGSGNRKVVCIMVFLLFIAFNFGPVSISEPPSAPISPRMNKGEPQPRRHLLGFSEQEPVQGVEPLQGSSQGPKEPQPSPTDQPSFSNLTAFPGGAKELLLRDLDQLFLSSDCRHFNRTESLRLADELSGWVQRHQRGRRKIPQRAQERQKSQPRKKSPPVKAVPIQPPGPPERDSVGQLQLYRHPDRSQPAFLDAIDRREDTFYVVSFRRDHLLLPAISHNKTSRPKMSLVMPAMAPNETLSGRGAPGDYEEMMQIECEVMDTRVIHIKTSTVPPSLRKQPSPTPGNATGGPLPVSAASQAHQASHQPLYLNHP
With B5, the binding result with LZTR1 R810W-FLAG and with LZTR1-FLAG was “binds” in each case.
